Assay results from the Human Domainome abundance scans (Beltran et al. 2025).

B1: Cold shock protein CspB, residues 1 to 66; numbered along this chain, P41016 (parent)
chain: MQRGKVKWFNNEKGYGFIEVEGGSDVFVHFTAIQGEGFKTLEEGQEVSFEIVQGNRGPQAANVVKL
B2: POU domain, class 2, transcription factor 3, residues 186 to 260; numbered along this chain, Q9UKI9 (parent)
chain: SDLEELEKFAKTFKQRRIKLGFTQGDVGLAMGKLYGNDFSQTTISRFEALNLSFKNMCKLKPLLEKWLNDAESSP

Variants of: B1
Assay: abundance fitness (aPCA) (normalised: wild type 0, dead -1); higher = more abundant; growth selection in yeast, the domain comes from the species named
Details: Bacillus caldolyticus

Abundance fitness: each site, then its substitutions
Q2: D -0.036, G -0.043, A -0.003, V 0.018, R -0.006, P -0.206, S -0.034, T 0.029, H 0.027, I 0.028, C 0.027, F 0.048, N -0.026, E 0.011, M 0.051, Y 0.003, W 0.001
R3: A -0.032
M1: S -0.049, Q -0.021, K -0.1, E 0.008, A -0.046, H 0.016, T -0.03, W -0.086, L -0.044, I -0.006, R -0.096, C -0.102, G -0.064, D -0.086, Y 0.027, F -0.025

Variants of: B2
Assay: as above
Details: Homo sapiens

Abundance fitness of substitutions, site by site:
N69: T 0.033, Y -0.081, L -0.068, I 0.018, F 0.061, K -0.125, S 0.006, G 0.042, H 0.083, E 0.002, P -0.326, A -0.029, M -0.008, Q 0.033, D 0.026, W 0.014, V -0.028
L60: H -0.285, R -0.519, D -0.601, W -0.074, G -0.79, A -0.081, K -0.106, I -0.067, Q -0.242, P -0.855, Y -0.117, V -0.02, N -0.395, E -0.847, F -0.079, M -0.062, T -0.039
P62: C -0.201, E -0.118, R -0.149, W -0.365, V -0.128, A -0.16, G -0.085, H -0.025, N -0.24, F -0.191, I -0.082, K -0.036, Y -0.624, T -0.163, Q -0.167
S74: T -0.034, V 0.039, M -0.131, Y -0.107, I -0.033, C -0.009, H 0.058, R -0.038, F -0.08, Q -0.017, L -0.119, D -0.065, G -0.084, E -0.172, K 0.036, W -0.059
L64: P -0.802, D -0.557, K -1.01, Y -0.221, C -0.148, Q -0.836, T -0.462, E -0.888, V -0.197, N -0.776, R -0.83, I -0.224, G -0.784, S -0.743, F -0.135, W -0.981
P75: E -0.017, H -0.044, A 0.044, M -0.059, K -0.128, R -0.044, W -0.183, L 0.022, F -0.185, Q -0.086, S -0.067, C -0.076, G 0.011
E72: S -0.084, R -0.122, T -0.078, I -0.213, P -0.269, G -0.089, Y -0.186, V -0.043, Q -0.026, D -0.037, W -0.179, N -0.002, L -0.173, F -0.24, A -0.033, K -0.133, C -0.071
C58: M -0.005, R 0, P -0.474, T -0.09, W 0.032, L -0.02, S 0.026, N -0.005, H -0.052, G -0.031, I 0.01, V -0.019, K -0.058
L63: N -0.026, Q -0.108, C -0.031, T -0.059, I 0.072, S -0.055, M -0.027, H 0.011, R -0.022, W -0.07, A 0.024, V -0.032, E -0.127, G -0.06, Y -0.173, F -0.221, P -0.092
D70: E 0.027, V -0.096, L -0.09, G -0.006, F -0.059, P -0.405, M -0.103, Q 0.003, C -0.201, Y -0.021, I -0.02, A -0.059, N -0.066, H -0.131, K -0.046, S -0.063, R -0.049, T 0.082
K61: C -0.194, M -0.133, E -0.273, A -0.05, N -0.628, D -0.898, L -0.198, P -0.829, V -0.065, F -0.324, S -0.153, Q -0.017, Y -0.108, G -0.241, W -0.181, H -0.183, T -0.254, I -0.128, R -0.02
S73: L -0.078, W -0.173, E -0.04, V -0.038, D -0.003, G -0.023, H -0.017, T -0.049, M -0.088, Q -0.059, R -0.113, A -0.012, Y -0.121, P -0.077, N 0.003, K -0.06, C -0.087, F -0.077
K66: I -0.142, A -0.055, V -0.066, P -0.544, S -0.147, R -0.024, E -0.061, H -0.104, D 0.018, N -0.019, M -0.157, F -0.248, T -0.007, Y -0.132, G -0.038, Q -0.036, C -0.063, W -0.161
E65: N -0.047, W -0.211, F -0.118, V -0.095, R -0.197, S -0.096, K 0.042, T -0.133, D -0.031, Q -0.109, H -0.05, P -0.58, Y -0.215, I 0.023, M 0.043, A -0.07, L -0.043, C -0.033
K59: M -0.056, N -0.026, S -0.033, Q -0.03, E 0.053, H -0.015, P -0.733, I -0.037, G -0.086, T -0.007, A -0.013, F 0.06, D -0.039, V -0.086, W -0.129
W67: Q -0.761, H -0.44, D -0.706, L -0.246, A -0.603, F -0.004, I -0.419, M -0.306, T -0.612, C -0.282, Y 0.005, G -0.804, S -0.741, E -0.696, R -0.731, N -0.909
A71: M -0.017, I -0.074, D -0.322, P -0.067, G -0.156, S -0.059, C -0.169, W -0.076, K 0.022, T -0.005, L 0.017, R -0.025, E -0.01, Q 0.036, H 0.047, V 0.01, Y -0.271, N 0.093
L68: H -0.358, E -0.564, C -0.153, Q -0.311, D -0.733, N -0.673, F -0.312, M -0.109, Y -0.298, G -0.563, I 0.006, P -0.749, S -0.285, A -0.114, W -0.43, K -0.809, V -0.052, T -0.317, R -0.626
